Data on 167 variants can be found in the RNAGym collection of RNA variant scans (doi:10.1073/pnas.2313332121).

B1: TPR t1 (parent)
chain: GACCAAUCUGCCCUCAGAGCUCGAGAACAUCUUCGGAUGCAGAGGAGGCAGGCUUCGGUGGCGCGAUAGCGCCAACGUCCUCAACCUCCAAUGCAUCCCACCACAUGAUGAUGCCUGAAGAGCCUUGGUUUUUUG

Variants of B1 are the subject of the data set. Briefly: polymerase ribozyme fitness, log enrichment relative to wild type (log ratio); higher = more active; in vitro selection for triplet polymerase activity. The method in brief: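 Only genotypes with ≥10 input reads and ≥1 read per output were kept after Illumina sequencing of input and output libraries. These libraries were PCR-built, transcribed mutants of each subunit of a heterodimeric triplet polymerase ribozyme, each put through one triplicate in vitro selection round with frozen incubation at −7 °C, gel excision of extended constructs, streptavidin-bead capture and RT-PCR. Fitness is a logarithmic ratio of genotype enrichment to wild-type enrichment, from inverse-variance-weighted replicate averages, with the logarithm in base 2.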
U59C U78C G122A: the “polymerase ribozyme fitness (log ratio)” value was -0.562.
To C8U C64U belongs 0.265; to C53U C72A U130A, -0.183; to G44U A50C C73U U92C, -2.12.
Next, A46U A91G: -1.96; A16C G52A C70U C73U: -3.8.
As for C11G U59A, the “polymerase ribozyme fitness (log ratio)” value was 0.0952.
To C12G G36U G61U A111C belongs 0.246.
As to G61U U116A, the “polymerase ribozyme fitness (log ratio)” value is -3.38.
On to C8A A84U, for which the “polymerase ribozyme fitness (log ratio)” value worked out at 0.295.
Consider C8G U87C A105C C124G, for which the “polymerase ribozyme fitness (log ratio)” value was determined as 0.541.
Turning to G63U C70G A118G U125A, the “polymerase ribozyme fitness (log ratio)” value is -1.35.
Next, C79U G135U: -0.964; C40A G69C C85G G110U U112C: -6.63; C11U C22A A37G A68G C72A U109A: -5.84.
To G65U C72A C88G C124A belongs -5.79.
To C56G G58A G77A belongs 0.427; to A66U C76U U106C A119G U126C U130A, -2.47; to G51U C62A G110C, -8.04.
For C4U C98U G113U, the “polymerase ribozyme fitness (log ratio)” value is -3.82.
Turning to G71U U87G, the “polymerase ribozyme fitness (log ratio)” value was -0.424.
To C20U U33G U59A G107U G110C belongs -6.84; to A5U G39U, -1.13.
To G120A G135A belongs -0.0112; to A66C C85A C86A, -2.7.
Next, G39C G69A G127U: -3.35.
As for U9G G45U, the “polymerase ribozyme fitness (log ratio)” value is -0.0404.
For the variant C70A C88A, the “polymerase ribozyme fitness (log ratio)” value is -1.82.
C56G C94U: the “polymerase ribozyme fitness (log ratio)” value was -0.644.
Next, C72U G113A: -1.48; A2C C13G G36A G63A: -5.73.
G23A G39U C53A G69U G71A C115G G117A: the “polymerase ribozyme fitness (log ratio)” value is -4.86.
Regarding C62U G93U U112G U129A, the “polymerase ribozyme fitness (log ratio)” value is -3.65.
Next, A27G U96G C99G U129A: -6.24; A18C G128C: -5.12; A37U A41C C64A U109A G128U: -5.77.
Turning to C8G C20G G44U, the “polymerase ribozyme fitness (log ratio)” value is -4.75.
With C12A C70G C89A G110A U129A, the “polymerase ribozyme fitness (log ratio)” value was -6.66.
To A37U G42C belongs -1.65; to A6G C72G C89U, -0.661.
To C56A C101A belongs -0.979; to A5U G47U A121U C124U, 0.495; to U9A G52C C94U C101A, -1.78.
To U32A G44A C94A C99G G120U belongs -7.6.
On to C20A C53U, for which the “polymerase ribozyme fitness (log ratio)” value is -2.46.
Turning to U9C C11U C101A, the “polymerase ribozyme fitness (log ratio)” value was -0.843.
Next, C64A G117U: -6.44; U7G U132C: 0.108.
As to C53U C64U U106A, the “polymerase ribozyme fitness (log ratio)” value was -1.12.
To C72A G110U belongs -1.54; to C4U C73U, -0.492.
To A6C C53A G69C G120A belongs -1.04; to C56U U106A G120A, 0.351; to A50U C124A, 0.575.
To A75G U129C belongs -0.465; to A41U C53A C114G, -1.85.
For U32A C72U, the “polymerase ribozyme fitness (log ratio)” value was -5.
Next, U30C A50G A74G C123U: -3.32; C8U A46C G63U U106C: -1.81.
Next, U7G A16C: -1.37; C40U C49A C94U G117C: -5.09.
Take C20U G42A A91C: the “polymerase ribozyme fitness (log ratio)” value is -4.6.
Take A29G G45C U106A: the “polymerase ribozyme fitness (log ratio)” value is -1.67.
To A16U G42U belongs -2.52.
With C8U C56U C70A, the “polymerase ribozyme fitness (log ratio)” value is -4.3.
Next, U96A A119U: -1.13; C8U A50U A75U U130A: -1.78; C13A C28G C34A G69A A84C G110C: -4.89.
To C11G A37U A41U A95C U106C C124A belongs -1.05.
Next, G36C G39C C62U C124G U130G: -1.27; G17C A41U G51U C64U C104U G120A: -6.91; C4G A90U A100C C124U U132C: -4.88.
For the variant G39U C123G U126C, the “polymerase ribozyme fitness (log ratio)” value was -0.255.
In the case of C3U A6U G57A G120C, the “polymerase ribozyme fitness (log ratio)” value came to 0.153.
To A50C U116C belongs -1.32.
Take G23U A29G C70A A83U C85A C115U: the “polymerase ribozyme fitness (log ratio)” value was -7.23.
Regarding C11G G44A A68G, the “polymerase ribozyme fitness (log ratio)” value is -4.14.
To A5C G17C G44A A83U G120A U131A belongs -4.99; to C56A C72U, -0.391; to U14G A50G A84G, -3.03.
In the case of G48U C72G G122A, the “polymerase ribozyme fitness (log ratio)” value is -2.3.
G39A G57A G60C C101A G113C: the “polymerase ribozyme fitness (log ratio)” value is -6.12.
Take G17A G52A A118G: the “polymerase ribozyme fitness (log ratio)” value is -4.15.
In the case of C11A C56U A105U, the “polymerase ribozyme fitness (log ratio)” value is -3.49.
Next, U59A G117U: -2.68; C62G A84U A108G: -5.29.
To A5U C28G U96A C114U belongs -5.96; to A6U G47A C72G A75G, -2.41; to A6G C11A U109G A119C C123G U125C, -5.22.
For C11G A41C U87A G122A, the “polymerase ribozyme fitness (log ratio)” value was -0.672.
Next, G17U C62G: -3.93.
As to C8U U14G G45A G69A, the “polymerase ribozyme fitness (log ratio)” value was -2.72.
Next, U38G U55G: 0.414; C12A U112C: 0.835; G36U U55C G93A: -2.49.
Take A26U C72G G120A: the “polymerase ribozyme fitness (log ratio)” value is -2.51.
Next, G60C G113C: -2.72; C56G C89G: -3.34.
To C22G U78C belongs -3.01.
Regarding C97U A121U, the “polymerase ribozyme fitness (log ratio)” value worked out at 1.5.
As for C49A C56A U59A C73G C114A G128C, the “polymerase ribozyme fitness (log ratio)” value is -8.01.
Consider G60A C82U U109G, for which the “polymerase ribozyme fitness (log ratio)” value is -5.13.
To C49A G71A G77C belongs -1.63; to C15U G71A C79U, -1.53; to G19C G71U C114A G128A, -2.59.
To G61A A103G belongs -2.38.
On to C12U C80U C89U C99U G120A, for which the “polymerase ribozyme fitness (log ratio)” value is -2.97.
In the case of C3G G63C A68C A111U U112G G113A, the “polymerase ribozyme fitness (log ratio)” value is -5.32.
Next, C101A U112G C115A: -0.657; U21G C64U C72U C73G: -3.77.
Next, G58A U59C C70G: -4.95.
As to C70G G117A, the “polymerase ribozyme fitness (log ratio)” value was -3.54.
With C12U C20U A91U U116G, the “polymerase ribozyme fitness (log ratio)” value was -4.44.
On to C11G C73U, for which the “polymerase ribozyme fitness (log ratio)” value is 0.123.
Next, C8G C20U G69U C101U: -1.07; A6U C15A A37C C40G C80U U96G: -2.51.
As to C79U C104A, the “polymerase ribozyme fitness (log ratio)” value is -2.22.
Regarding G17A A43G G47U G120C G135C, the “polymerase ribozyme fitness (log ratio)” value was -2.39.
To C4G belongs -1.33; to G45C G58C, -0.221; to C62U C89A C124A, 0.0858.
Next, C34A A50U C53U A121C: -4.91; G45U C72A U87A A121C: 0.113.
In the case of A29U G48A A111C, the “polymerase ribozyme fitness (log ratio)” value was -2.11.
To C15G C86U U116G belongs -2.95.
To C34A C72U G110U belongs -6.56; to A46U U125A, -1.67; to C4A G52A C53A C72U A90U U130C, -3.37.
Consider A111G G120A, for which the “polymerase ribozyme fitness (log ratio)” value is -0.416.
As for A18G C64U G69C U78G G113C, the “polymerase ribozyme fitness (log ratio)” value is -3.05.
Regarding C62G C101U, the “polymerase ribozyme fitness (log ratio)” value is -1.28.
On to G107A U112C, for which the “polymerase ribozyme fitness (log ratio)” value is -3.85.
Next, G36A U55G C115A: -1.03; U9A A26G G47A C49U C82G G107U: -6.22.
Next, C101G C102U G117A: -7.15; G36C A68G C79G C98U C115U C124U: -6.44.
With G45U G120U, the “polymerase ribozyme fitness (log ratio)” value was -0.652.
To G10A U96G belongs -0.411; to G52A G57A C82U C85A A121U, -1.13; to A27C C28G, -4.
Consider A2G A18C C115A C123U, for which the “polymerase ribozyme fitness (log ratio)” value was -1.44.
Next, A91G C115U: -1.36; G48U C94G: -1.44; G48A G117C: -3.17.
With C3G C28U G61U G120C U125G, the “polymerase ribozyme fitness (log ratio)” value is -4.18.
To C3A C79A G120U G128A belongs -3.06; to A50C C70U A105U, -3.71.
Next, C15U A37G C64U: -1.81; C79A A100C: -2.29; C12U G44U A46U C85A: -4.14.
Turning to G39U G58A A121U, the “polymerase ribozyme fitness (log ratio)” value worked out at 1.6.
Turning to C49A G113C G120U, the “polymerase ribozyme fitness (log ratio)” value is -4.69.
With G42U A121C, the “polymerase ribozyme fitness (log ratio)” value worked out at 0.464.
For G42A C56G G122A, the “polymerase ribozyme fitness (log ratio)” value was -3.21.
As for A29G U38G A43U A90C G113U U125C, the “polymerase ribozyme fitness (log ratio)” value is -3.96.
Turning to A6G C22A G48U G110U, the “polymerase ribozyme fitness (log ratio)” value was -6.03.
Next, A41C G71U: -0.988; C8A A16C C40U C72A U92G C123U U130A: -3.93; C72A C102U: -1.48.
As for A27G C73A, the “polymerase ribozyme fitness (log ratio)” value was -2.84.
Regarding C12G A43U U92G C104A G117U A118U, the “polymerase ribozyme fitness (log ratio)” value was -5.1.
Take G58C G71A C82G C88G: the “polymerase ribozyme fitness (log ratio)” value is -2.39.
For C64U C85A, the “polymerase ribozyme fitness (log ratio)” value was -3.12.
With C114G G117A, the “polymerase ribozyme fitness (log ratio)” value was -5.27.
On to C12A G17U C20A G42A G45U A90G C123A, for which the “polymerase ribozyme fitness (log ratio)” value was -4.53.
To A37U G63U A105C belongs -5.31.
For C40A A43G C56G G135U, the “polymerase ribozyme fitness (log ratio)” value was -4.41.
